The target in the assay is CRY1(Human)-3×FLAG (human) (UniProt Q16526). The assay can be described thus: co-IP.
Sequence of UniProt Q16526 (Q16526 whole entry): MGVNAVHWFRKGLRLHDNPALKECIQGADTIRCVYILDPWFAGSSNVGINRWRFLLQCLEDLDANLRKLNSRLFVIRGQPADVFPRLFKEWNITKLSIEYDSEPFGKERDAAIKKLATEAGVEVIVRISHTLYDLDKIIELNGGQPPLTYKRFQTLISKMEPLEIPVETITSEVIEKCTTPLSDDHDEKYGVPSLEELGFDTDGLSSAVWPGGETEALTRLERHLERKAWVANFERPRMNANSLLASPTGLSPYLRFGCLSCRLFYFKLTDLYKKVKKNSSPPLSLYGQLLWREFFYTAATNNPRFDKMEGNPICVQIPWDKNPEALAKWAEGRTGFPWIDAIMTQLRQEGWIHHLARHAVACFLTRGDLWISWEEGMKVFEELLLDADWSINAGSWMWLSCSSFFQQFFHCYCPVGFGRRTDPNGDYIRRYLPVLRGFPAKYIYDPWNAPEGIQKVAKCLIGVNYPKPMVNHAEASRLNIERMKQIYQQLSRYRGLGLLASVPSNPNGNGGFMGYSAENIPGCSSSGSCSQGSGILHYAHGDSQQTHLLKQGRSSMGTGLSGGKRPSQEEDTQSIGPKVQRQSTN

As to PER2(Loris)-3×HA (natural protein), the ability to bind with CRY in co-IP (quantity and unit not named) worked out at 35.2.

Values taken from article PMC9546566.
